Reference: article PMC10529453 (Cell reports, 2023)
Read-outs that look alike come from different tables or passages of the source. Blank lines part the entries; values can stand above or below the binder they belong to.

B1: Mec3 (natural protein, S. cerevisiae, UniProt Q02574 1-474, looked up)
chain: MKLKLIVNGCEAPDDYKLLRTTINTVASLRKTAILRFNSERLTIISTPKSSLNSSNNGTILRGDTGQLWCTIPHDVFRLYTVISARELNTITMECNCDSLLSVFKRYDRVMNQGSSSNMTIKLQSMPEWNTNNGTLSGGTAGGVDTTSKPNPICALGITFEEIVHTSGPNDAIVMNGGVDEHNGLPTTVGTGNLLASNKVIMHSFKVPVKLLFRAQDTRIQEPMINYIQLMMYKLPPISGEFGSAFHGFIRRVERYSNVNHIHLMGVKKKEHGNEGDDVELKIIVNELDWHLEICWNGPLDSVIQRQEGLTDNPSQNQHIDTDGRQEEGSLPIIEADKPMSSLYTNTRDREMEENIRYDEDLLRIEDSSIADTRGNIYTADTSGDTEFNDISVMVEKAEQESSSTHEVIIRCKDWKVCSKLYAAFEEVVLAISHDESCVFHCSLDRGSLEDSEDVEKPRERGQIIYYIARSKGL

Experiments:
Ddc1 = biological target: T1, Ddc1 (S. cerevisiae, UniProt Q08949 1-612); assay: cryo-EM structure
T1 sequence: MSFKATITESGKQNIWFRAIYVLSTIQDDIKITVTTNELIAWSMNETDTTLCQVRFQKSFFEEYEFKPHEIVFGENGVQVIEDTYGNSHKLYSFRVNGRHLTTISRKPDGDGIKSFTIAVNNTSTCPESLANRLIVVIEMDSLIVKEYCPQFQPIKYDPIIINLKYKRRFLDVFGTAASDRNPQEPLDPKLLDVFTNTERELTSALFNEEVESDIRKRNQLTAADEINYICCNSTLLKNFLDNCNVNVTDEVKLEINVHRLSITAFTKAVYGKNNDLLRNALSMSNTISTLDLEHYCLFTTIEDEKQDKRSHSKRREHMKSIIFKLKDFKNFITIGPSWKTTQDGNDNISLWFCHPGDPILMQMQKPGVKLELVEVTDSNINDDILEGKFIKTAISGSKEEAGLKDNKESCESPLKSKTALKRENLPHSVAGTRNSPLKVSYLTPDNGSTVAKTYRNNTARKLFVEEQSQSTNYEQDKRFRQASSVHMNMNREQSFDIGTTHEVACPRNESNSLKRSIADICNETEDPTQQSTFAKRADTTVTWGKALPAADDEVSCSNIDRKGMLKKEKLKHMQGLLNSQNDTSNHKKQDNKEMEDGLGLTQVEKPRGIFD

[1] = biological target: Rad24-RFC clamp loader;32P-9-1-1 checkpoint clamp (Saccharomyces cerevisiae;Saccharomyces …, UniProt P32641;P40339;P38629;P40348;P38251;Q08949;Q02574;P48581 …, |); assay: magnetic bead clamp loading
[2] = biological target: T2, Rad24-RFC clamp loader;9-1-1 checkpoint clamp (Saccharomyces cerevisiae;Saccharomyces …, UniProt P32641;P40339;P38629;P40348;P38251;Q08949;Q02574;P48581 …, |); assay: cryo-EM
[3] = biological target: T2, Rad24-RFC clamp loader;9-1-1 checkpoint …; assay: cryo-EM; remark: listed apart in the source
Mec3 = biological target: B1; assay: cryo-EM structure

Binder: B1
binding result (Ddc1): binds

B2: 10-nt gap DNA (loading) (mixed)
DNA 1: CGGTATAGGCGATACGAATCTTTTTTTTTTCCGTATAGCCGTAGCGAGCCCGACCATACC
DNA 2: GGTATGGTCGGGCTCGCTACGGCTATACGG
DNA 3: GATTCGTATCGCCTATACCG
modifications: 5' phosphate on primer 2
binding result [1]: binds

B3: 5-nt gapped DNA (cryo-EM) (mixed)
DNA 1: CGGTATAGGCGATACGAATCTTTTTCCGTATAGCCGTAGCGAGCC
DNA 2: GGCTCGCTACGGCTATACGG
DNA 3: GATTCGTATCGCCTATACCG
binding result [2]: binds

B4: 10-nt gapped DNA (cryo-EM) (mixed)
DNA 1: CGGTATAGGCGATACGAATCTTTTTTTTTTCCGTATAGCCGTAGCGAGCC
DNA 2: GGCTCGCTACGGCTATACGG
DNA 3: GATTCGTATCGCCTATACCG
binding result [3]: binds

binding result (Mec3): binds
B5: Rad17 (natural protein, S. cerevisiae)
chain: MRINSELANKFSASTVHLEHITTALSCLTPFGSKDDVLIFIDADGLSFVRENNHVIKIQLLLSRELFMSYSYRNETEDHMKLCVKINHILDSVSVMNRNSDDIVECTLSYDGHGSPFVLIFEDSFISERVEYSTYLIKDFDTNGLELDRERISFEAIIKGEALHSALKDLKEIGCKECYVYAKTEANDENVFALISKSQLGFSKIKLPSNRSILEKLQVFDGDSTTVIDGFAVIGFFDFTSFDKIRKSTKIASKVLFRMDVHGVLSVNILSQTDDVIITDTTRPSNNRPGSIRQLQLPKDYPGIVIEVCMLEKESIDEAAQTEIELLMETNELGNRNSFKKSTIRKRYGTDKGNETSNDNLLQLNGKKIKLPSEEENNKNRESEDEENHCKYPTKDIPIFF
